Drawing on US20240293457A1 (Innovent, published 2024), this text covers EC50 for one molecule.

This assay concerns the target T1, human CLDN18.2 on tumor cells (NUGC-4, KATO III-hCLDN18.2, DAN-G-hCLDN18.2) (human, UniProt P56856-2 1-261).
T1 construct: whole, on cells; also called Claudin18.2; DNA-G cells overexpressing Claudin18.2
The experiment in a line: FACS binding to NUGC-4 gastric cancer cells (MFI vs Log [Conc(nM)]).

B1: HB37A6 (antibody, human IgG1, kappa, V domains shown)
VH: EVQLLDSGGGLVQPGGSLRLSCAASGFTFSSYVMSWVRQAPGKGLNWVSTISHSGGSTYYADSVKGRFTISRDNSKNTLYLQMNSLRAEDTAVYYCAIDAPYYDILTGYRYWGQGTLVTVSS
VL: not shown
notes: Fully human; expressed in HEK293 cells as a full-length human IgG1 kappa monoclonal antibody
In the case of B1, the midpoint of the response, the EC50, lay at 1.05 nM.
